Experimental data published in patent US20250388640A1 (SYNTHEKINE, published 2025).
Where a chain is given by its changes, count along the chain named. Names may count otherwise. Each block holds one binder with its values, some of them ahead of it.

What was measured:
Assay in all cases: cell-based or functional assay
[1] = target: T1, hIL-12 receptor signaling complex (hIL-12Rβ1 and hIL-12Rβ2) (human, UniProt P42701 24-662; Q99665 24-862)
[2] = target: T1, hIL-12 receptor signaling complex …; remark: listed apart in the source
[3] = target: T1, hIL-12 receptor signaling complex …; remark: listed apart in the source
[4] = target: T1, hIL-12 receptor signaling complex …; remark: listed apart in the source

T1 sequence (Q99665 24-862, chain 2 of 2, other chains not shown): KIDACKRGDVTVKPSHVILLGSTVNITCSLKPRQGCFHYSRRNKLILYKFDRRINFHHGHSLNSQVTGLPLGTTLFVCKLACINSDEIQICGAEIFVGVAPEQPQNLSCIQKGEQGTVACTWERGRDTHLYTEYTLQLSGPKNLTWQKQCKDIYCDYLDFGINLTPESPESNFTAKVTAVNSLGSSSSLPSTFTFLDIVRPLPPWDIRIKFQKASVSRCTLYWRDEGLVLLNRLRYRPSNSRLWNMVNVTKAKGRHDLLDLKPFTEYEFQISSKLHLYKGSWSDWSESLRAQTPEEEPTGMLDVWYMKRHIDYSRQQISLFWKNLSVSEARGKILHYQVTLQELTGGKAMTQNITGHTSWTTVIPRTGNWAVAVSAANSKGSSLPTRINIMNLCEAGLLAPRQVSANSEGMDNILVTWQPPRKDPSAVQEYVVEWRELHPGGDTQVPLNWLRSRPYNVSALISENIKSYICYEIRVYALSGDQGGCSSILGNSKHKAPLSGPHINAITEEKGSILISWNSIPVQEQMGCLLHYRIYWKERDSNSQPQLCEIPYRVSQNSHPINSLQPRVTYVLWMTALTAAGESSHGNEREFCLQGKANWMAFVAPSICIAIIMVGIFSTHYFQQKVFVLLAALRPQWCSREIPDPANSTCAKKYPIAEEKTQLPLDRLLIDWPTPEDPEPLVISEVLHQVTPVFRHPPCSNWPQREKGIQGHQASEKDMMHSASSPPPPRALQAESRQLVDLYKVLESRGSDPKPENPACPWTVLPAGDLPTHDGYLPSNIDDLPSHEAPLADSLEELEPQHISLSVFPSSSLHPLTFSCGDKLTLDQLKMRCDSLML

B1: human IL12 mutein, hIL-12p40 E81A, F82A with hIL-12p35-8X His (ligand)
chain 1: IWELKKDVYVVELDWYPDAPGEMVVLTCDTPEEDGITWTLDQSSEVLGSGKTLTIQVKAAGDAGQYTCHKGGEVLSHSLLLLHKKEDGIWSTDILKDQKEPKNKTFLRCEAKNYSGRFTCWWLTTISTDLTFSVKSSRGSSDPQGVTCGAATLSAERVRGDNKEYEYSVECQEDSACPAAEESLPIEVMVDAVHKLKYENYTSSFFIRDIIKPDPPKNLQLKPLKNSRQVEVSWEYPDTWSTPHSYFSLTFCVQVQGKSKREKKDRVFTDKTSATVICRKNASISVRAQDRYYSSSWSEWASVPCS
chain 2: RNLPVATPDPGMFPCLHHSQNLLRAVSNMLQKARQTLEFYPCTSEEIDHEDITKDKTSTVEACLPLELTKNESCLNSRETSFITNGSCLASRKTSFMMALCLSSIYEDLKMYQVEFKTMNAKLLMDPKRQIFLDQNMLAVIDELMQALNFNSETVPQKSSLEEPDFYKTKIKLCILLHAFRIRAVTIDRVMSYLNASGSHHHHHHHH
pSTAT4 [%+] EC50, CD8+ T Cells [1]: 1.13 nM
pSTAT4 [%+] EC50, CD56hi NK Cells [1]: 1.85 nM
pSTAT4 [%+] Emax, CD8+ T Cells [1]: 80.2 %+
pSTAT4 [%+] Emax, CD56hi NK Cells [1]: 85.2 %+
pSTAT4 [gMFI] EC50, CD8+ T Cells [2]: 6.6 nM
pSTAT4 [gMFI] EC50, CD56hi NK Cells [2]: 5.94 nM
pSTAT4 [gMFI] Emax, CD8+ T Cells [2]: 100000 gMFI
pSTAT4 [gMFI] Emax, CD56hi NK Cells [2]: 25000 gMFI
IFNy [gMFI] EC50, CD8+ T Cells [3]: 0.41 nM
IFNy [gMFI] EC50, CD56hi NK Cells [3]: 2.56 nM
IFNy [gMFI] Emax, CD8+ T Cells [3]: 17100 gMFI
IFNy [gMFI] Emax, CD56hi NK Cells [3]: 187000 gMFI
IFNy [%+] EC50, CD8+ T Cells [4]: 0.095 nM
IFNy [%+] EC50, CD56hi NK Cells [4]: 0.02 nM
IFNy [%+] Emax, CD8+ T Cells [4]: 81.5 %+
IFNy [%+] Emax, CD56hi NK Cells [4]: 94 %+

B2: human IL12 mutein, hIL-12p40 E81A, F82A, K106A with hIL-12p35-8X His (ligand)
chain 1: B1 chain 1 with K84A
chain 2: B1 chain 2
pSTAT4 [%+] EC50, CD8+ T Cells [1]: 1.86 nM
pSTAT4 [%+] EC50, CD56hi NK Cells [1]: 4.03 nM
pSTAT4 [%+] Emax, CD8+ T Cells [1]: 77.7 %+
pSTAT4 [%+] Emax, CD56hi NK Cells [1]: 86.9 %+
pSTAT4 [gMFI] EC50, CD8+ T Cells [2]: 9.75 nM
pSTAT4 [gMFI] EC50, CD56hi NK Cells [2]: 156 nM
pSTAT4 [gMFI] Emax, CD8+ T Cells [2]: 86900 gMFI
pSTAT4 [gMFI] Emax, CD56hi NK Cells [2]: 35700 gMFI
IFNy [gMFI] EC50, CD8+ T Cells [3]: 1.4 nM
IFNy [gMFI] EC50, CD56hi NK Cells [3]: 2.8 nM
IFNy [gMFI] Emax, CD8+ T Cells [3]: 15000 gMFI
IFNy [gMFI] Emax, CD56hi NK Cells [3]: 140000 gMFI
IFNy [%+] EC50, CD8+ T Cells [4]: 0.533 nM
IFNy [%+] EC50, CD56hi NK Cells [4]: 0.079 nM
IFNy [%+] Emax, CD8+ T Cells [4]: 78.4 %+
IFNy [%+] Emax, CD56hi NK Cells [4]: 90.8 %+

Results, then the binder that gave them:

IFNy [gMFI] EC50, CD8+ T Cells [3]: 0.51 nM
IFNy [gMFI] EC50, CD56hi NK Cells [3]: 0.62 nM
IFNy [gMFI] Emax, CD8+ T Cells [3]: 13200 gMFI
IFNy [gMFI] Emax, CD56hi NK Cells [3]: 123000 gMFI
IFNy [%+] EC50, CD8+ T Cells [4]: 0.305 nM
IFNy [%+] EC50, CD56hi NK Cells [4]: 0.046 nM
IFNy [%+] Emax, CD8+ T Cells [4]: 78.5 %+
IFNy [%+] Emax, CD56hi NK Cells [4]: 93.7 %+
B3: human IL12 mutein, hIL-12p40 E81K, F82A with hIL-12p35-8X His (ligand)
chain 1: B1 chain 1 with A59K
chain 2: B1 chain 2

IFNy [gMFI] EC50, CD8+ T Cells [3]: 0.55 nM
IFNy [gMFI] EC50, CD56hi NK Cells [3]: 1.48 nM
IFNy [gMFI] Emax, CD8+ T Cells [3]: 11700 gMFI
IFNy [gMFI] Emax, CD56hi NK Cells [3]: 313000 gMFI
IFNy [%+] EC50, CD8+ T Cells [4]: 0.37 nM
IFNy [%+] EC50, CD56hi NK Cells [4]: 0.061 nM
IFNy [%+] Emax, CD8+ T Cells [4]: 68.3 %+
IFNy [%+] Emax, CD56hi NK Cells [4]: 93.7 %+
B4: human IL12 mutein, hIL-12p40 E81I, F82A with hIL-12p35-8X His (ligand)
chain 1: B1 chain 1 with A59I
chain 2: B1 chain 2
